According to paper PMC12748588, “Cryo-EM structures of plant Augmin reveal coiled-coil assembly, antiparallel dimerization, and NEDD1 binding” (Nature Communications, 2025):

T1: AUG5 with C-terminal GFP and His tags (subunit of the hetero-tetramer) (A. thaliana, UniProt Q9FMB4 1-796)
T1 construct: AUGMIN subunit 5 (AUG5), A. thaliana; subunit ORF in the four-subunit polycistronic vector; Subunit of m2; source: E. coli SoluBL21, co-expressed with AUG1, AUG3 and AUG4, purified as part of the assembly (Ni-IDA, Q-FF, Superdex 200); not shown: His tag, C-terminal, kept
T1 sequence (looked up): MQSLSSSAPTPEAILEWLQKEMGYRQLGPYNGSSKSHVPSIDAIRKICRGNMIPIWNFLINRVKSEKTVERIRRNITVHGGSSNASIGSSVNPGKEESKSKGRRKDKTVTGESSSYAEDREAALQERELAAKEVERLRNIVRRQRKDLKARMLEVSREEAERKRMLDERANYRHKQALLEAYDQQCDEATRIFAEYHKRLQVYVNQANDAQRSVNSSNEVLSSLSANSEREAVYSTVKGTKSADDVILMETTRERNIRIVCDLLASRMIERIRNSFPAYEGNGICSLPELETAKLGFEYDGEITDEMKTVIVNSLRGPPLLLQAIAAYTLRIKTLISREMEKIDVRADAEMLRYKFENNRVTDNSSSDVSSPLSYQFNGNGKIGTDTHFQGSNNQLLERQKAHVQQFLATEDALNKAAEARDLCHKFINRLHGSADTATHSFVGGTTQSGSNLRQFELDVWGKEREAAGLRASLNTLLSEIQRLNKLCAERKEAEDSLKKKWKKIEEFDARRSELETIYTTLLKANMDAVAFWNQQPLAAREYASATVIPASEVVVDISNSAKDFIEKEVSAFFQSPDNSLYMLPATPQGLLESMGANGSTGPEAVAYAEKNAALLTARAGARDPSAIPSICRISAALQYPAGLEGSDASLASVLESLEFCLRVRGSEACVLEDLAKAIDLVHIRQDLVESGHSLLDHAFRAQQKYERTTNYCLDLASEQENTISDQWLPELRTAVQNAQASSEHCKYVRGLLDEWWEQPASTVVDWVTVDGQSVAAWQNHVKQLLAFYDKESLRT

T2: AUG5 with C-terminal 8xHis tag (subunit of the hetero-octamer) (A. thaliana, UniProt Q9FMB4 1-796)
T2 construct: AUGMIN subunit 5 (AUG5), A. thaliana; subunit ORF in pET3a, assembled into the eight-subunit polycistronic vector; Subunit of m1; the assembly was captured on Ni-IDA by this chain; also called AUG5 (His); not shown: His8, C-terminal, kept
T2 sequence (looked up): T1 sequence (looked up)

B1: AUG4 (A. thaliana Augmin subunit 4) (natural protein, UniProt Q8GYM3 1-423, looked up)
chain: MVKALQGAAQNLPADVNQLIDQLERHCLAPDGSLVTKSVYSDLQLAREEMSRERLRYLEAMAIYCEAVAMVEEYQQAISVANHGGIRDVQGLYPQLGLKNSPQVYETLEHRLVVAEAAQKLRLPLISDGGEIHEEEIEKWSILSRSSLDSASTSFTISSTSNSVNYANSSANSVAGGISLSAVDTDVVGGVPNRFLGITPAYLSYVQLQNTISMDMADYQMFLAREIEGRLKEKCDKLADAIVDDTDSSTGNRNSSARLPERVKFIIEEIERDEAALREDLYSADRKFAEYYNVLEQILGVLIKLVKDLKLEHQHKYNEMQKTWLCKRCETMNAKLRVLENVLLLETYTPDSISALHNIRNYLVEATEEASAAYNKAVTRLREYQGVDPHFDTIARQYHDIVKKLENMQWTIHQVEMDLKSHD
notes: AUGMIN subunit 4 (AUG4), A. thaliana; subunit ORF in pET3a, assembled into polycistronic vectors; Subunit of m1 and m2; source: E. coli SoluBL21, co-expressed with the other Augmin subunits, purified as part of the assembly
B2: AUG1 (A. thaliana Augmin subunit 1) (natural protein, UniProt F4IK01 1-299, looked up)
chain: MSDVTGDLAAVSEAKGGSDAARISEVKAWLTSQFEAVGKEVPNFEYTHRSITHLYNLATASQAKSQAATIVANDFRLKASEYRAQAARIREILESAGMSQESLPSNVVSSAQVLANVANLLNIRDTELSSFLVAMGDISLRKTGVEEKRAKAQKESNALLDYTRKAIQRLTYLKKILAQLEDDVVPCESQMENWKTNLEVMAVKEEQYIQQYKKYEQMLLNRVGYTPKISHRELVEMAEHRKELDKMTKPVLDTLRSYQDLPPDKALAALAIEDKKRQFTAAEKYLEEVLQSALETNDE
notes: AUGMIN subunit 1 (AUG1), A. thaliana; subunit ORF in pET3a, assembled into polycistronic vectors; Subunit of m1 and m2; source: E. coli SoluBL21, co-expressed with the other Augmin subunits, purified as part of the assembly
B3: AUG3 (A. thaliana Augmin subunit 3) (natural protein, UniProt Q0WQE7 1-617, looked up)
chain: MSSARLCSLVAELGYEGAGKLDPDSFEWPFQYDDARPILDWICSSLRPSNVLSLAELSLYEQFQRDGKLLEGDDLDQAYDSISAFSSRRNNQEAVFGAEESIKEVRDATLAHKAEALELQRQLRRLQTQYDLLTGQSSALIQGRRARVAATSAVSGQITAIEDSLSARNLQMNGVLGRLASTSQELAHYHSGEEDGIYLAYSDFHAYLAGDSACTKELNQWFAKQLDTGPYRLVAEEGKSKCSWVSLDDTSNMLRDLEKSQHQRVAELQRLRSIFGTSERQWIEAQVENAKQQAILLTLKSQVTSVEAHIHFDLHSLRRKHADLVEEISTLYQKEEKLLSETIPELCWELAQLQDTYILQGDYDLKVMRQELYISKQKVFINHLVNQLARHQFLKLACQLEKKNMLGAFSLLKVIESELQGYLSATRSRVGRCSALIQAASDVQEQGAVDDRDSFLHGVRDLLSIHSNTQAGLSTYVSAPAIIQQIVALQSDLSSLQSDLENSLPDDRNRCINELCTHIQNLQQLLFASSTTAQPILTPWPLMKELDEMGKINSKLSTAVEEVTLEHRNKREIVKHHAKDVELQRRVFVDFFCNPERLRNQVRELNALVRARQASSS
notes: AUGMIN subunit 3 (AUG3), A. thaliana; subunit ORF in pET3a, assembled into polycistronic vectors; Subunit of m1 and m2; source: E. coli SoluBL21, co-expressed with the other Augmin subunits, purified as part of the assembly
B4: AUG6 with C-terminal StrepII tag (natural protein, A. thaliana, UniProt Q94BP7 1-741, looked up)
chain: MTMDREKERELELESAMYTNCLLLGLDPNVIGLGASNGTPRVGLFRHSNPKLGEQLLYFILSSLRGPAQSSKDFDKVWPIFDSAQSRDFRKVVQAIISELESQGALPRSNSRVSSLATCCGPRFVELLWQLSLHALREVHRRTFPADVASNPLPSSLTDVSFSHAATLLPVTKARIVLERRRFLKNAETAVQRQAMWSNLAHEMTAEFRGLCAEEAYLQQELEKLNDLRNKVKQEGEVWDDLVSSSSQNSHLVSKATRLWDSIMARKGQHEVLASGPIEDLIAHREHRYRISGSALLAAMDQSSQVPRAELLSAHSDDSASLADDKELSDGSYTNMHDHSLVDSFETASSQASDETLSRVDDRGGKINQTVDVAEVIRRWTHALQRIHKQSLLLAKANDGDGPDILRTASDGGTSGHVESLAATLTEHQQHLASFQVLINQLKEVSPAIQKSISECTEMVNSLPPTLPPVTRSNGQASSLLQSQGSGRIMEGVSNDVAELTSTMSNVQLEKVSASPTLKLPQLFSSTPTSSGKGGNGQKRQTMASQVNKMESLSEKNSTDQALSNARPDNLPTDTSSSFVHNLKKSVREAALLIPSSAGSSRDSQSDEGSEHYFVPLSATGFSRFPSETKALPLRGSRALTSLSEPSFLEPNVPDSFAPSKYSDIPDTYDDLDSFKDYDNGNGFLSVAGSNSVASDAQQSFYDIDDQVFSPPLLMDSSLLSDAYEDLLAPLSETEAALMEH
notes: AUGMIN subunit 6 (AUG6), A. thaliana; ORF in pET3a, assembled into a polycistronic vector; N-terminal CH domain; its C-terminal region is prone to degradation; Subunit of m1; also called AUG6-StrepII; source: E. coli SoluBL21, co-expressed with the other Augmin subunits, purified as part of the assembly
B5: AUG2 (A. thaliana Augmin subunit 2) (natural protein, UniProt O48767 1-296, looked up)
chain: MSMGGDTTWVGKKPIRRIGGLSDALSIASDLGFAVAPPPSQEELQSFASSNGERGDDLIRVLRELSVVQRKIADLQVELQGRKDDKNVAHLTHVGEMQKKIETLSRITQILKDVIQNKDRIIARLQQPYSLDCIPVEAEYQKQFSELLMKAASDYGALTASVSDFQWSQNFKEPPSVWGEMLRPIPVALASCTRFFEAMSAMRESFATLQELRVGNSAVSLPTTPGGNEMTHRDSDCVTPPQGRIESSFDDLAVHKTRRQNNDQNEEEEEEEEEEDGNNNGNRRLSWPPSVKKSSV
notes: AUGMIN subunit 2 (AUG2), A. thaliana; codon-optimised ORF in pET3a, assembled into a polycistronic vector; Subunit of m1; source: E. coli SoluBL21, co-expressed with the other Augmin subunits, purified as part of the assembly
B6: AUG7 (A. thaliana Augmin subunit 7) (natural protein, UniProt Q0WTP1 1-329, looked up)
chain: MAAKQMEEIQKKLRLLSYPRANAPAQSLLFAGMERYALLEWLFFKLLGDKSPFSQQNLQGDAGVRDEETVRIQYLAEIAKFLGITPTVDIEAIQGHGTYEDRMEMLRNIVDLVEASLFSDNQEWSIDEQVAKDIQLIDAIAERQSLIFSEECKLFPADVQIQSIYPLPDVSELETKLSEQAKILSNLQQKVDDLAAKHAYNPDEEYTEVESQLRARLESFLETARAFNTIYTKEIRPWTHMMEVPQLHGFGPAANRLLEAYNMLLKFLGNLKNLRDSHAALSIGSSGTVAGEPSSVTRIVSDCEAALTVLNRDLGILSASIAREQGERL
notes: AUGMIN subunit 7 (AUG7), A. thaliana; codon-optimised ORF in pET3a, assembled into a polycistronic vector; N-terminal CH domain; Subunit of m1; source: E. coli SoluBL21, co-expressed with the other Augmin subunits, purified as part of the assembly

Target: T1, AUG5 with C-terminal GFP and His tags …
Assay: SEC-MALS + other: mass photometry; co-expressed assemblies purified by Ni-IDA (AUG5 His tag), Q-FF and gel filtration; subunits confirmed by SDS-PAGE and mass spectrometry; SEC-MALS on Superdex 200 Increase 10/300, 200 µL at 1 mg/mL, 50 mM HEPES pH 7.5, 200 mM KCl, 1 mM MgCl2, 1 mM EGTA
Details: both partners purified

stoichiometry N [subunit per assembly] | Molecule
1 | B1
1 | B2
1 | B3

Target: T2, AUG5 with C-terminal 8xHis tag (subunit …)
Assay: as above
Details: both partners purified

stoichiometry N [subunit per assembly] | Molecule
1 | B4
1 | B1
1 | B2
1 | B5
1 | B3
1 | B6

Target: AUG5 with C-terminal 8xHis tag (subunit of the hetero-octamer) (A. thaliana) (UniProt Q9FMB4)
Assay: as above
Details: not given

stoichiometry N (subunit per assembly) | Molecule
1 | AUG8 C-terminal region (residues 383-644) (from UniProt Q9SUH5 383-644) (domain or fragment)
